This series is described as follows: amyloid nucleation score (Sup35N fusion, yeast selection) (log enrichment); library NNK2; higher = more nucleation; inactive = no reads after selection. In outline:
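Libraries of peptides of 20 random codons fused to Sup35N were expressed in psi-negative yeast and induced 24 hours with 100 μM copper sulfate. Selection was 7 days at 30°C on medium lacking adenine and uracil, and plasmid inserts were Illumina-sequenced before and after selection. Nucleation score is the DiMSum log enrichment of output over input reads, centred on the mode score of non-aggregating sequences, and sequences with under 100 input reads were left out.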

± gives the uncertainty stated by the source.

The text below walks through data of the supplement of paper PMC12042874.

On to SALRVSEGMLSSGEIAHLVY, for which the amyloid nucleation score was -0.052 ± 0.23.

LLSVCFSRARC returned an amyloid nucleation score of 1.07 ± 0.23.

The substance VWAHL gave an amyloid nucleation score of -0.191 ± 0.35.

Consider TPLEYF, for which the amyloid nucleation score is -0.19 ± 0.3.

In turn, GNQRFVFVLRMGTVGPLHMF registered an amyloid nucleation score of 0.836 ± 0.55.

For NYGSSRLAPVHNT, the amyloid nucleation score was determined as 3.17 ± 0.12.

Turning to RGMVLS, the amyloid nucleation score is -0.129 ± 1.1.

In turn, TFYSLGLNISMFSLPGLAGY registered an amyloid nucleation score of 0.683 ± 0.35.

For the substance KHIDVRSNVWTRPHSKWLWS, the amyloid nucleation score came out at 0.403 ± 0.2.

YPNTLFHWEAS: the amyloid nucleation score was found to be 0.359 ± 0.29.

As for WLFRGSIVKWTPHRPDRYAC, the amyloid nucleation score is -0.088 ± 0.46.

In the case of SCIYRE, the amyloid nucleation score is -0.097 ± 0.21.

Consider LHIYTKVHRSR, for which the amyloid nucleation score came out at 3.59 ± 0.13.

With KTHIREVCEGVTIIHKWTWV, the amyloid nucleation score is -0.508 ± 0.63.

For KRLTPS, the amyloid nucleation score stood at 0.155 ± 1.1.

Substance SVYMPSVCNKLFFRGCGYGF gave an amyloid nucleation score of 3.04 ± 0.096.

YIPKLLRCGRGCHYILSYAD displayed an amyloid nucleation score of 0.065 ± 0.62.

Turning to ERVNKFLWGGFSERLRLMSQ, the amyloid nucleation score was 0.51 ± 0.65.

AFLFSRDCMERWTMYDGLWW returned an amyloid nucleation score of -0.063 ± 0.42.

SYDDGRFGVGCCFIEGYRI gave an amyloid nucleation score of -1.41 ± 1.

In turn, LVLLKGYKRSNNGKQCYAGL displayed an amyloid nucleation score of 0.365 ± 0.66.

Take ESGCRHYLCLGATTIVMDS: the amyloid nucleation score is 6.619 ± 0.049.

With TRMVCSFRCQESVPEP, the amyloid nucleation score amounted to 0.775 ± 0.8.

The substance YKVYPWLFIYLLLLDRAD showed an amyloid nucleation score of -1.45 ± 0.73.

Turning to PPDNVSNWYVVKWAGRMMQK, the amyloid nucleation score is 4.13 ± 0.044.

On to TMLFTALDASHWG, for which the amyloid nucleation score is 6.696 ± 0.05.

On to RDIFILSLLDRMSEGTKRIR, for which the amyloid nucleation score was determined as 3.86 ± 0.076.

With YPSLNDACQP, the amyloid nucleation score is -0.394 ± 1.1.

In turn, GWAIPFADIEHCHVLLRISV returned an amyloid nucleation score of 0.914 ± 0.46.

For YSTIKIHLPGLVVRNQSLVR, the amyloid nucleation score result was “inactive”.

Regarding FWQSSLDSS, the amyloid nucleation score amounted to 0.213 ± 0.38.

NRLWHPQCLWAFLNIRNPQL came in with an amyloid nucleation score of 0.286 ± 0.48.

NDWLSHGR registered an amyloid nucleation score of 4.31 ± 0.054.

In turn, CLPGTCRRCQWGRGIDQSSE registered an amyloid nucleation score of 0.317 ± 0.41.

NCSSIF: the amyloid nucleation score result is “inactive”.

Substance FNFGNDGYSFNIILWYQRYI returned an amyloid nucleation score of 6.61 ± 0.063.

For the substance YSELMFTEVIYTVYYLTFLR, the amyloid nucleation score is -0.797 ± 0.76.

Substance FTFILLGYVWRLLMYIPGMR showed an amyloid nucleation score of 0.236 ± 1.1.

YRQRFVRKARSFYLWVMALP: the amyloid nucleation score was -0.409 ± 0.45.

Substance GVPDCLLCVNSIYQGSLSFG gave an amyloid nucleation score of 5.24 ± 0.09.

With SLHRAVYMGVKEYAILTEYG, the amyloid nucleation score was found to be 0.127 ± 0.35.

In turn, LYLTYKVVHTSTPPVASYCE yielded an amyloid nucleation score of 5.855 ± 0.033.

With SMFGRRVWLDCNQPAGGRFA, the amyloid nucleation score is 0.118 ± 0.22.

In turn, ATFFM showed an amyloid nucleation score of -0.011 ± 1.1.

Consider MYNRG, for which the amyloid nucleation score is 3.87 ± 0.11.

With RLGFISRSNLVANDVGKIFL, the amyloid nucleation score result was “inactive”.

For MIFYDAIGWKLGNRGSN, the amyloid nucleation score is -0.728 ± 0.45.

Turning to LNIQFGGSLHWKSGGVATEA, the amyloid nucleation score amounted to 0.103 ± 0.28.

Regarding KYLRVDMVNMNAYKGHWEGS, the amyloid nucleation score worked out at 0.526 ± 0.66.

Substance YNRRLYRIACVGIVNVNGVG yielded an amyloid nucleation score of 5.902 ± 0.042.

In turn, TIIKDIVIVDVFSSN yielded an amyloid nucleation score of 1.53 ± 0.15.

REVTNLYVVGGSDCTLIGGM: the amyloid nucleation score was 3.75 ± 0.097.

As to LSRESTCIFSMNKDVFS, the amyloid nucleation score worked out at 0.016 ± 1.1.

LSRIRVHSIRLYSVFPVMFC: the amyloid nucleation score was determined as 3.67 ± 0.072.

In turn, DMLVDYSIKDDRVYKVRLPM came in with an amyloid nucleation score of -1.61 ± 0.62.

On to LGMRLFRNVCYGLPSRSNRR, for which the amyloid nucleation score is 1.64 ± 0.41.

As for LTVDCQDSLLYWHRMMSRPL, the amyloid nucleation score came to 0.853 ± 0.31.

KINMLCFSWGSCVGGCRKVC: the amyloid nucleation score is 7.063 ± 0.055.

SILSIYFDPYGCRL showed an amyloid nucleation score of 0.164 ± 1.1.

FRMNEQSPAEWSRSVYFGGG came in with an amyloid nucleation score of -0.346 ± 0.49.

LQLASNVHEHKQNGLSHRIN displayed an amyloid nucleation score of 0.439 ± 0.5.

For VYSPFLICI, the amyloid nucleation score was found to be 0.174 ± 1.

Consider VHPSDGAGLYS, for which the amyloid nucleation score was -1.34 ± 0.78.

As for PIFLFQRYPLLGLWLKKACD, the amyloid nucleation score entry is “inactive”.

SHGAWTLFLSVIFCSAQYR registered an amyloid nucleation score of 4.06 ± 0.087.

As for SLDSIFCLTENISYQGIWCR, the amyloid nucleation score is -1.12 ± 0.28.

Turning to CFEMV, the amyloid nucleation score was -0.886 ± 0.21.

In the case of SLKLLYKMKLRSGQWAHIYR, the amyloid nucleation score amounted to 0.03 ± 0.43.

For the substance GCGFFDFSVSWL, the amyloid nucleation score was -1.24 ± 0.78.

The substance IPLQSTMRFRCPVMDLGNFI showed an amyloid nucleation score of -0.849 ± 1.

For the substance PPVLLISKSSFMQLGCSLST, the amyloid nucleation score was -0.587 ± 1.

QASSGSKDLD came in with an amyloid nucleation score of 0.102 ± 0.23.

For LLTCTYMQF, the amyloid nucleation score is -0.124 ± 0.54.

The substance VVMVVCMV showed an amyloid nucleation score of 0.36 ± 0.62.

The substance GVSFSDYLSACCLDAGVSGY showed an amyloid nucleation score of 0.773 ± 0.23.

With YVPPQWRIVDRNVSY, the amyloid nucleation score amounted to 0.012 ± 1.

For VDLGNYSSYRDFRETRLRPM, the amyloid nucleation score came to 0.229 ± 0.39.

With LCCVVEN, the amyloid nucleation score was -0.603 ± 0.42.

As to SGRPHDCPHWRFFRSIKGLI, the amyloid nucleation score was -0.676 ± 0.48.

Turning to EYTHRSERFIMGNVISKVRM, the amyloid nucleation score came out at 0.255 ± 0.49.

Regarding SLTLLGLNR, the amyloid nucleation score is -0.22 ± 0.22.

For KNGQYDGTGDNSLLGPDGFI, the amyloid nucleation score is 3.44 ± 0.075.

Consider SGTGKVCVVLVHKTSVQRKC, for which the amyloid nucleation score is 1.14 ± 0.3.

WNINRIPFKVRWRAIFHMYH came in with an amyloid nucleation score of -1.25 ± 0.37.

In the case of FIINKHSFQRGLFMVSLVSI, the amyloid nucleation score entry was “inactive”.

Take WRSLLVLAFHLRLLYVSSMK: the amyloid nucleation score entry was “inactive”.

As to CTQVMTERV, the amyloid nucleation score was -0.091 ± 0.32.

Substance LFPSLMAVNVQRSDTGPSHG came in with an amyloid nucleation score of 1.2 ± 0.45.

On to SIAKFGWTIGRLGYIHIFIL, for which the amyloid nucleation score is -1.16 ± 1.1.

Take ILLNGRSFLRS: the amyloid nucleation score is 0.174 ± 1.

In turn, MLDLIRLNDVICSQKFH displayed an amyloid nucleation score of 0.48 ± 0.64.

For the substance CFESHWCRYPLDGRLGHKEF, the amyloid nucleation score entry is “inactive”.

Regarding CPLFYMSMISGFEGIFSLHK, the amyloid nucleation score result is “inactive”.

In turn, MLDLNQFLCRGFKLTRPYGL registered an amyloid nucleation score of -0.155 ± 0.54.

As to RLRDRNDHVLRCSHYWIQDW, the amyloid nucleation score was determined as 0.956 ± 0.57.

On to VRIFWTVTLFDCRLLRWLSN, for which the amyloid nucleation score was 0.045 ± 0.38.

With LNKNRHGVGIFGIIKYKDMT, the amyloid nucleation score entry was “inactive”.

NHTSNIGSRGTAFFWVLR: the amyloid nucleation score came to 7.187 ± 0.069.

For the substance FTIHYAGTGCWMGMYINSDY, the amyloid nucleation score amounted to 2.44 ± 0.062.

The substance MAGVTPLELLCGPNQFALMR came in with an amyloid nucleation score of 1.95 ± 0.48.

With ASLHWKMFLMAFLTASIVHA, the amyloid nucleation score is -0.337 ± 0.55.

As for VVNVVSGYGAE, the amyloid nucleation score is 0.619 ± 0.19.

As for WKESGVHRHFHTSIGKDRVL, the amyloid nucleation score result is “inactive”.
